T1: human CEACAM1 on Ba/F3 cells (human, UniProt P13688 35-526)
T1 construct: whole, on cells
T1 sequence (looked up): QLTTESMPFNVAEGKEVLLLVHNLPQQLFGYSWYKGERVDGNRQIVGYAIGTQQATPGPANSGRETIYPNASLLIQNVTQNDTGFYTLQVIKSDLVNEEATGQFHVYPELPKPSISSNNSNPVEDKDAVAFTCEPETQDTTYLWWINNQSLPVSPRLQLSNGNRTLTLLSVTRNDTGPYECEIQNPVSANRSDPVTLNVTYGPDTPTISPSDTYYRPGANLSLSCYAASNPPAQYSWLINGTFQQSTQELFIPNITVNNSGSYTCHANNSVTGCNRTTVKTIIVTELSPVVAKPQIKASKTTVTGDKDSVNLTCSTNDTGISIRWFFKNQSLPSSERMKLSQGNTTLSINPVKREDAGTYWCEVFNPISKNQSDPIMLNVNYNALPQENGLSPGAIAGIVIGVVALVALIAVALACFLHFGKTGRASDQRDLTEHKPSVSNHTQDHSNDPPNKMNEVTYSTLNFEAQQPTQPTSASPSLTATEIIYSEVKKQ

T2: CEACAM5 A1-B1-Fc (human, UniProt P06731 145-322, limits assumed)
T2 construct: also called A1-B1 domain
T2 sequence: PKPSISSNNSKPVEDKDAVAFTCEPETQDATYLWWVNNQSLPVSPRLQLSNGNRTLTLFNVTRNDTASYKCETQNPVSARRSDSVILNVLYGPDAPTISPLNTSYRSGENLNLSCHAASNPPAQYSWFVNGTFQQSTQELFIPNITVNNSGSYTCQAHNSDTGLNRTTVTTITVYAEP

T3: human CEACAM5 on cells (human, UniProt P06731 35-685)
T3 construct: tumour cell lines with endogenous CEACAM5, or B16F10 engineered to express hCEACAM5; also called CEACAM5 on MKN-45, HPAF-II, SK-CO-1, LoVo, BxPC-3, Kato-III, LS-174T, ZR-75-30; hCEACAM5-B16F10
T3 sequence: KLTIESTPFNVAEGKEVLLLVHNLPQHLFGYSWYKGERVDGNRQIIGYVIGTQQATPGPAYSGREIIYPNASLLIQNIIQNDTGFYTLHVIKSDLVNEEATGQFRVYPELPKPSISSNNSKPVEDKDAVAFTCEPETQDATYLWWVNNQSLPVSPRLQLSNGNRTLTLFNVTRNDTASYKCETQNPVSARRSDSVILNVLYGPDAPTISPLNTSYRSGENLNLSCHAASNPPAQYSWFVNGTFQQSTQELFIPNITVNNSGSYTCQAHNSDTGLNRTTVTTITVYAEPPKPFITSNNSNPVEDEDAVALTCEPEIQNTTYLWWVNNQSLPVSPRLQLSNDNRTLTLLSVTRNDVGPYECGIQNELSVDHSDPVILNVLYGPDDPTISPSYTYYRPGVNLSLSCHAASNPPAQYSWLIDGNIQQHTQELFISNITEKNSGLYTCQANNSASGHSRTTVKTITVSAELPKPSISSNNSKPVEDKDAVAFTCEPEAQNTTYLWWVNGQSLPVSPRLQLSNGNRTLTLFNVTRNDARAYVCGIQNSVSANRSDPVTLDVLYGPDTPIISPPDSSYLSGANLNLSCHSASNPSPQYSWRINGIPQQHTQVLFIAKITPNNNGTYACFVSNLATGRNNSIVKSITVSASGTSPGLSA


Tests used:
[1] = target: T1, human CEACAM1 on Ba/F3 cells; test: flow cytometry on Ba/F3 cells expressing human CEACAM1, fold over background (FOB), 5-fold dilutions from 1600 nM
Method: (§1) To examine the binding specificity of the TriNKETs to CEACAM5 compared to other CEACAM family members, Ba/F3 cells were engineered to express one of human CEACAM1, CEACAM6, CEACAM8, or cynomolgus CEACAM5. CEACAM5 TriNKETs were evaluated by flow cytometry starting at 1600 nM followed by 7 5-fold dilutions.

[2] = target: T2, CEACAM5 A1-B1-Fc; test: SPR, Fab capt, 25C
Method: If the protein domain was an Fc fusion, AB0411, AB0466, AB0264, or AB0621 were captured using an anti-human Fab antibody (Cytiva, #28958325) immobilized onto a CM5 chip. The various hCEACAM5 protein domains (N-term, A1-B1, A2, B2, A3, or B3) were titrated over the captured TriNKETs at 50 μL/min for 180 sec of association and 300 sec of dissociation. The assay was run at 25° C. in HBS-EP+ running buffer, pH 7.4. The surface of the CM5 chip was regenerated using […] glycine pH 2.1.

[3] = target: T4, cynomolgus CEACAM5 on Ba/F3 cells (cynomolgus monkey); test: flow cytometry on Ba/F3 cells expressing cynomolgus CEACAM5, fold over background (FOB), 5-fold dilutions from 1600 nM
T4 construct: whole, on cells
Method: as §1

[4] = target: T3, human CEACAM5 on cells; test: flow cytometry, LoVo cells
[5] = target: T3, human CEACAM5 on cells; test: flow cytometry, SK-CO-1 cells
[6] = target: T3, human CEACAM5 on cells; test: flow cytometry, Kato-III cells
[7] = target: T3, human CEACAM5 on cells; test: flow cytometry, MKN-45 cells

| binding result [1] | Kd [2] | kon [2] | EC50 (read off the curve) [3] | EC50 [4] | Max FOB [4] | EC50 [5] | Max FOB [5] | EC50 [6] | Max FOB [6] | EC50 [7] | Max FOB [7] | Binder |
| --- | --- | --- | --- | --- | --- | --- | --- | --- | --- | --- | --- | --- |
| no binding (tested: 1600 nM) | 1.5 nM | 250000 M⁻¹ s⁻¹ | ~50 nM | – | – | – | – | – | – | – | – | AB0621 F3' CEACAM5 TriNKET (bispecific antibody, human IgG1, kappa) DIVMTQSPDSLAVSLGERATINCKSSHSLLYGNFQNNYLAWYQQKPGQPPKLLIYWASTRESGVPDRFSGSGSGTDFTLTISSLQAEDVAVYYCQQYYSYPYTFGCGTKLEIKGGGGSGGGGSGGGGSGGGGSQVQLVQSGAEVKKPGASVKVSCKASGYTFTAYTIHWVRQAPGQCLEWMGYINPSSGYTEYNQKFKDRTTLTADTSISTAYMELSRLRSDDTAVYYCTREGGLLWFDYWGQGTLVTVSSGSDKTHTCPPCPAPELLGGPSVFLFPPKPKDTLMISRTPEVTCVVVDVSHEDPEVKFNWYVDGVEVHNAKTKPREEQYNSTYRVVSVLTVLHQDWLNGKEYKCKVSNKALPAPIEKTISKAKGQPREPRVYTLPPCRDELTKNQVSLTCLVKGFYPSDIAVEWESNGQPENNYKTTPPVLVSDGSFTLYSKLTVDKSRWQQGNVFSCSVMHEALHNHYTQKSLSLSPG heavy: EVQLVESGGGLVKPGGSLRLSCAASGFTFSSYSMNWVRQAPGKGLEWVSSISSSSSYIYYADSVKGRFTISRDNAKNSLYLQMNSLRAEDTAVYYCARGAPIGAAAGWFDPWGQGTLVTVSSASTKGPSVFPLAPSSKSTSGGTAALGCLVKDYFPEPVTVSWNSGALTSGVHTFPAVLQSSGLYSLSSVVTVPSSSLGTQTYICNVNHKPSNTKVDKKVEPKSCDKTHTCPPCPAPELLGGPSVFLFPPKPKDTLMISRTPEVTCVVVDVSHEDPEVKFNWYVDGVEVHNAKTKPREEQYNSTYRVVSVLTVLHQDWLNGKEYKCKVSNKALPAPIEKTISKAKGQPREPQVCTLPPSRDELTENQVSLTCLVKGFYPSDIAVEWESNGQPENNYKTTPPVLDSDGSFFLYSWLTVDKSRWQQGNVFSCSVMHEALHNHYTQKSLSLSPG light: DIQMTQSPSSVSASVGDRVTITCRASQGISSWLAWYQQKPGKAPKLLIYAASSLQSGVPSRFSGSGSGTDFTLTISSLQPEDFATYYCQQGVSFPRTFGGGTKVEIKRTVAAPSVFIFPPSDEQLKSGTASVVCLLNNFYPREAKVQWKVDNALQSGNSQESVTEQDSKDSTYSLSSTLTLSKADYEKHKVYACEVTHQGLSSPVTKSFNRGEC |
| – | – | – | – | 3.25 nM | 19 fold over background | 8.67 nM | 37 fold over background | 1.17 nM | 5 fold over background | 9.05 nM | 107 fold over background | AB0411 F3' CEACAM5 TriNKET (bispecific antibody, human IgG1, kappa) DIQLTQSPATLSVSPGERATLSCRASQSVSSSYLAWYQQKPGQAPRLLIYGASSRATGIPDRFSGSGSGTDFTLTISRLEPEDFAVYYCQQYNNWPLTFGCGTKVEIKGGGGSGGGGSGGGGSGGGGSQVQLVQSGGGLVQPGGSLRLSCAASGFTFTSYAMSWVRQAPGKCLEWVSAISGTGDSTFYADSVKGRFTFSRDNSKNTLYLQMNSLRAEDTAVYYCAKDLGWLQYGLFDYWGQGTLVTVSSGSDKTHTCPPCPAPELLGGPSVFLFPPKPKDTLMISRTPEVTCVVVDVSHEDPEVKFNWYVDGVEVHNAKTKPREEQYNSTYRVVSVLTVLHQDWLNGKEYKCKVSNKALPAPIEKTISKAKGQPREPRVYTLPPCRDELTKNQVSLTCLVKGFYPSDIAVEWESNGQPENNYKTTPPVLVSDGSFTLYSKLTVDKSRWQQGNVFSCSVMHEALHNHYTQKSLSLSPG heavy: EVQLVESGGGLVKPGGSLRLSCAASGFTFSSYSMNWVRQAPGKGLEWVSSISSSSSYIYYADSVKGRFTISRDNAKNSLYLQMNSLRAEDTAVYYCARGAPIGAAAGWFDPWGQGTLVTVSSASTKGPSVFPLAPSSKSTSGGTAALGCLVKDYFPEPVTVSWNSGALTSGVHTFPAVLQSSGLYSLSSVVTVPSSSLGTQTYICNVNHKPSNTKVDKKVEPKSCDKTHTCPPCPAPELLGGPSVFLFPPKPKDTLMISRTPEVTCVVVDVSHEDPEVKFNWYVDGVEVHNAKTKPREEQYNSTYRVVSVLTVLHQDWLNGKEYKCKVSNKALPAPIEKTISKAKGQPREPQVCTLPPSRDELTENQVSLTCLVKGFYPSDIAVEWESNGQPENNYKTTPPVLDSDGSFFLYSWLTVDKSRWQQGNVFSCSVMHEALHNHYTQKSLSLSPG light: DIQMTQSPSSVSASVGDRVTITCRASQGISSWLAWYQQKPGKAPKLLIYAASSLQSGVPSRFSGSGSGTDFTLTISSLQPEDFATYYCQQGVSFPRTFGGGTKVEIKRTVAAPSVFIFPPSDEQLKSGTASVVCLLNNFYPREAKVQWKVDNALQSGNSQESVTEQDSKDSTYSLSSTLTLSKADYEKHKVYACEVTHQGLSSPVTKSFNRGEC |
| no binding (tested: 1600 nM) | 1 nM | 260000 M⁻¹ s⁻¹ | ~40 nM | 22.1 nM | 14 fold over background | 104 nM | 42 fold over background | 13.3 nM | 4 fold over background | 20.7 nM | 60 fold over background | AB0264 F3' CEACAM5 TriNKET (bispecific antibody, human IgG1, kappa) DIVMTQSPDSLAVSLGERATINCKSSHSLLYGNFQNNYLAWYQQKPGQPPKLLIYWASTRESGVPDRFSGSGSGTDFTLTISSLQAEDVAVYYCQQYYSYPYTFGCGTKLEIKGGGGSGGGGSGGGGSGGGGSQVQLVQSGAEVKKPGASVKVSCKASGYTFTAYTIHWVRQAPGQCLEWMGYINPSSGYTEYNQKFKDRTTLTADTSIPTAYMELSRLRSDDTAVYYCTREGGLLWFDYWGQGTLVTVSSGSDKTHTCPPCPAPELLGGPSVFLFPPKPKDTLMISRTPEVTCVVVDVSHEDPEVKFNWYVDGVEVHNAKTKPREEQYNSTYRVVSVLTVLHQDWLNGKEYKCKVSNKALPAPIEKTISKAKGQPREPRVYTLPPCRDELTKNQVSLTCLVKGFYPSDIAVEWESNGQPENNYKTTPPVLVSDGSFTLYSKLTVDKSRWQQGNVFSCSVMHEALHNHYTQKSLSLSPG heavy: EVQLVESGGGLVKPGGSLRLSCAASGFTFSSYSMNWVRQAPGKGLEWVSSISSSSSYIYYADSVKGRFTISRDNAKNSLYLQMNSLRAEDTAVYYCARGAPIGAAAGWFDPWGQGTLVTVSSASTKGPSVFPLAPSSKSTSGGTAALGCLVKDYFPEPVTVSWNSGALTSGVHTFPAVLQSSGLYSLSSVVTVPSSSLGTQTYICNVNHKPSNTKVDKKVEPKSCDKTHTCPPCPAPELLGGPSVFLFPPKPKDTLMISRTPEVTCVVVDVSHEDPEVKFNWYVDGVEVHNAKTKPREEQYNSTYRVVSVLTVLHQDWLNGKEYKCKVSNKALPAPIEKTISKAKGQPREPQVCTLPPSRDELTENQVSLTCLVKGFYPSDIAVEWESNGQPENNYKTTPPVLDSDGSFFLYSWLTVDKSRWQQGNVFSCSVMHEALHNHYTQKSLSLSPG light: DIQMTQSPSSVSASVGDRVTITCRASQGISSWLAWYQQKPGKAPKLLIYAASSLQSGVPSRFSGSGSGTDFTLTISSLQPEDFATYYCQQGVSFPRTFGGGTKVEIKRTVAAPSVFIFPPSDEQLKSGTASVVCLLNNFYPREAKVQWKVDNALQSGNSQESVTEQDSKDSTYSLSSTLTLSKADYEKHKVYACEVTHQGLSSPVTKSFNRGEC |
